Where a chain is given by its changes, count along the chain named.

MFI, binding result and EC50 data for 3 molecules are collected here from patent US20250002577A1 (ONCORESPONSE, published 2025).

B1: B21A1 (antibody, human IgG1, kappa)
heavy: not shown
light: DIVMTQTPASVEAAVGGTVTINCQASGNIYSFLAWYQQKPGQPPKLLIYTASNLETGVPSRFSGSGSGTEYTLTISGVQCDDAATYYCLGGLYSSDVSYAFGGGTEVVVKRTVAAPSVFIFPPSDEQLKSGTASVVCLLNNFYPREAKVQWKVDNALQSGNSQESVTEQDSKDSTYSLSSTLTLSKADYEKHKVYACEVTHQGLSSPVTKSFNRGEC
notes: Rabbit/human chimera, human IgG1/kappa; AF647-conjugated in the flow cytometry titrations; also called B21A1 chimera IgG1; parent B21A1
B2: B21H1-45 (antibody, human IgG1, kappa)
heavy: not shown
light: B1 light with V3Q, A9S, S10T, A14S, N22T, V78L, C80S
notes: humanized IgG1/kappa, VH4+VL5
B3: B21H1-25 (antibody, human IgG1, kappa)
heavy: not shown
light: B1 light with V3Q, A9S, S10T, A14S, N22T, V78L, C80S
notes: humanized IgG1/kappa, VH2+VL5

T9 sequence (A6NI73 42-299): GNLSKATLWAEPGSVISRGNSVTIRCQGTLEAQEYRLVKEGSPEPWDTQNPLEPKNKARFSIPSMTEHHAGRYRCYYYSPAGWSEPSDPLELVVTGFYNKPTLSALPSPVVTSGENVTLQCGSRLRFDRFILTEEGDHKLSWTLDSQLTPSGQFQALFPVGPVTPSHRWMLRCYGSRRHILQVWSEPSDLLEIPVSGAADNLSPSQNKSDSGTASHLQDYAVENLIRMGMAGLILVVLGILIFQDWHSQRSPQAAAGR
T5 sequence (O75023 24-590): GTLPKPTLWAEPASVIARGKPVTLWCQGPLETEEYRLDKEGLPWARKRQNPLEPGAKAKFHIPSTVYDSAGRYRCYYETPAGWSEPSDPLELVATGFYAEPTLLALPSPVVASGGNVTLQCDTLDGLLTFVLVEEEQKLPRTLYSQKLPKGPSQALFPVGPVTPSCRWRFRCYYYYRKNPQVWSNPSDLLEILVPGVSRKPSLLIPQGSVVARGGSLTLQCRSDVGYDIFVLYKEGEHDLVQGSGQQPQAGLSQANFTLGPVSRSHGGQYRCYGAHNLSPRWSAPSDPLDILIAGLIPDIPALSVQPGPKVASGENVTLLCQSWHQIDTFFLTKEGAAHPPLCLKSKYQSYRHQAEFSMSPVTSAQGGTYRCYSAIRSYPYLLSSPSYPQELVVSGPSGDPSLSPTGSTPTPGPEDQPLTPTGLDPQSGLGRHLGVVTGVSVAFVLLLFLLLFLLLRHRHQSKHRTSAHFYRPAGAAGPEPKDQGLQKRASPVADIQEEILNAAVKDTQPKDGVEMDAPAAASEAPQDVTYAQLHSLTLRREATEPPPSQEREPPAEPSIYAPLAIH
T6 sequence (O75019 17-489): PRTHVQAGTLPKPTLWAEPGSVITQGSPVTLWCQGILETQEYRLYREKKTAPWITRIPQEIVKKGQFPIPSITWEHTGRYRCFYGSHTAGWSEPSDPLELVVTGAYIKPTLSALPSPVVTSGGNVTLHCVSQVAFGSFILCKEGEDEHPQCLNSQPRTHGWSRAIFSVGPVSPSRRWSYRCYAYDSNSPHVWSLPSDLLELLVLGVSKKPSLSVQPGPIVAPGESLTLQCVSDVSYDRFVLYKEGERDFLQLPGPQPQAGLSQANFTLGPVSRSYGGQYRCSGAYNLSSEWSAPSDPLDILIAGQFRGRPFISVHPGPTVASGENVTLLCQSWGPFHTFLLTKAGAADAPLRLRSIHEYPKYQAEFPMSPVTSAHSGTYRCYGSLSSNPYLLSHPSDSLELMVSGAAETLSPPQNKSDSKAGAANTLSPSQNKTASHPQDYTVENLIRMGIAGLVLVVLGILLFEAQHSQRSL
T11 sequence (Q8NHL6 24-458 limits assumed): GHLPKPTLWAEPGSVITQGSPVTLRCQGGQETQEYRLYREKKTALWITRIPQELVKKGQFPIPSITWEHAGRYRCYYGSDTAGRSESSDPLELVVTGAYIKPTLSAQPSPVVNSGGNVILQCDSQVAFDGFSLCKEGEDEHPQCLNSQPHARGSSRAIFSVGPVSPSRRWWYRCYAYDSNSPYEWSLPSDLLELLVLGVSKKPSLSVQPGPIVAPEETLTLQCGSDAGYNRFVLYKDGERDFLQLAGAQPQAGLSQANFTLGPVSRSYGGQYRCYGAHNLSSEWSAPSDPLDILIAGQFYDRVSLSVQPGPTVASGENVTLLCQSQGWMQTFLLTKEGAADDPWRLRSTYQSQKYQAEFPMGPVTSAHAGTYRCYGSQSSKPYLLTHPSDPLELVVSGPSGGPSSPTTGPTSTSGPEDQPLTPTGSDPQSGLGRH

In one assay the target is T1, human LILRB1 on cells (human, UniProt Q8NHL6 24-650).
T1 construct: whole, on cells; also called hLILRB1; LILRB1-expressing 721.221 cells
T1 sequence (Q8NHL6 24-650): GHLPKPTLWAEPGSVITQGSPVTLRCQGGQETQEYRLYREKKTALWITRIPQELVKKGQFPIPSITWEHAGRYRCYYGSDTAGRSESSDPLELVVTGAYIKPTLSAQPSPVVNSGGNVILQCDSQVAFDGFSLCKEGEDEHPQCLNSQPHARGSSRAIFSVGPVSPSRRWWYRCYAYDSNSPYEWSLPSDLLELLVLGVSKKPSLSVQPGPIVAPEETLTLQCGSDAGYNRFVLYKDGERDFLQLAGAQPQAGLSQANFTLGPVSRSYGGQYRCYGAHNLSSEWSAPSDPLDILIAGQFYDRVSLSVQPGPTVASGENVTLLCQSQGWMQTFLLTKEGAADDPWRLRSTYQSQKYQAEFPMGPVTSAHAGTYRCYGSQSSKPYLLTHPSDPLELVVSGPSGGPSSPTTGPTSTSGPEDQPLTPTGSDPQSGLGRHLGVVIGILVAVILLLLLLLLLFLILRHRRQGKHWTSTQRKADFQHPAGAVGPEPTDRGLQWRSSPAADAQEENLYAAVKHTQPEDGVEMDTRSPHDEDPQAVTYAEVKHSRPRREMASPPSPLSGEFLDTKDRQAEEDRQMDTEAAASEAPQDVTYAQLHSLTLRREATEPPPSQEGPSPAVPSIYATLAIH
The experiment in a line: flow cytometry, HEK293-6E transfectants. On the procedure: (§1) To determine that the parent chimera anti LILRB2/1 antibody specifically binds to LILRB2 and LILRB1 and not to other LILRB and LILRA family members, a cross-reactivity assay was performed. Cross-reactivity was assessed by antibody binding to transiently transfected HEK293-6E cells by flow cytometry. Binding was evaluated to HEK293-6E cells transiently transfected with human LILRB-1, -2, -3, -4, and 5 plasmids (Origene, Nos. RC219949, RC217935, RC211228, RC220932, RC206516) or to cells transiently transfected with human LILRA-1, -2, -4, -5, and -6 plasmids (Origene, Nos. RC210808, RC205626, RC220452, RC212310 RC212965). […] At a concentration of 1 μg/mL, no binding of B21A1 or the humanized variants to LILRB-3, -4, or -5 was observed (Table 7). Additionally, no binding to LILRA-1, -2, -4, -5, or -6 was observed, confirming the specificity of B21A1 and its humanized variants to LILRB1 and LILRB2 (Table 8).
A general note: In flow cytometry, cells or beads pass a laser one at a time.
Take B1: the MFI turned out to be 940 MFI.
B2 showed an MFI of 997 MFI.
Regarding B3, the MFI was 990 MFI.

The target in the next assay is T2, human LILRB2 on cells (human, UniProt Q8N423 22-597).
T2 construct: whole, on cells; also called hLILRB2; LILRB2-HEK293T
T2 sequence (Q8N423 22-597): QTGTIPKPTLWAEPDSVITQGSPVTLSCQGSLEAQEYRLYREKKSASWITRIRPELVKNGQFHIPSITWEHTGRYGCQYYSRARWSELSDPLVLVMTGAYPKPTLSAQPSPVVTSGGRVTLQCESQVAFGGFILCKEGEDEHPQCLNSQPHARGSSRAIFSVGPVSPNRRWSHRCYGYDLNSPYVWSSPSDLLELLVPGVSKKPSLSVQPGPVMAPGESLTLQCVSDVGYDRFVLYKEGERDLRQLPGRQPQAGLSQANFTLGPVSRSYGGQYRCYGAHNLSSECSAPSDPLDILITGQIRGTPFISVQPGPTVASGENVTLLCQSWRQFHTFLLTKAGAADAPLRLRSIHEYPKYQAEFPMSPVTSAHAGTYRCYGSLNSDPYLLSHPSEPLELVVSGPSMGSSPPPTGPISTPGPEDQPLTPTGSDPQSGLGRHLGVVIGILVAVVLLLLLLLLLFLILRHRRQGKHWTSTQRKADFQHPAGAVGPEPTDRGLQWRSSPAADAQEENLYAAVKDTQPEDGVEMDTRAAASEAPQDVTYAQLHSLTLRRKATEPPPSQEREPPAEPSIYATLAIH
The experiment in a line: flow cytometry, HEK293-6E transfectants. As to the method: as §1
In the case of B1, the MFI was found to be 5380 MFI.
Same read-out and setting: in the case of B2 it was 6680 MFI; in that of B3, 5320 MFI.

The target of another assay is T3, human LILRB3 on HEK293-6E cells (human, UniProt O75022 24-631).
T3 construct: whole, on cells; also called hLILRB3
T3 sequence (O75022 24-631): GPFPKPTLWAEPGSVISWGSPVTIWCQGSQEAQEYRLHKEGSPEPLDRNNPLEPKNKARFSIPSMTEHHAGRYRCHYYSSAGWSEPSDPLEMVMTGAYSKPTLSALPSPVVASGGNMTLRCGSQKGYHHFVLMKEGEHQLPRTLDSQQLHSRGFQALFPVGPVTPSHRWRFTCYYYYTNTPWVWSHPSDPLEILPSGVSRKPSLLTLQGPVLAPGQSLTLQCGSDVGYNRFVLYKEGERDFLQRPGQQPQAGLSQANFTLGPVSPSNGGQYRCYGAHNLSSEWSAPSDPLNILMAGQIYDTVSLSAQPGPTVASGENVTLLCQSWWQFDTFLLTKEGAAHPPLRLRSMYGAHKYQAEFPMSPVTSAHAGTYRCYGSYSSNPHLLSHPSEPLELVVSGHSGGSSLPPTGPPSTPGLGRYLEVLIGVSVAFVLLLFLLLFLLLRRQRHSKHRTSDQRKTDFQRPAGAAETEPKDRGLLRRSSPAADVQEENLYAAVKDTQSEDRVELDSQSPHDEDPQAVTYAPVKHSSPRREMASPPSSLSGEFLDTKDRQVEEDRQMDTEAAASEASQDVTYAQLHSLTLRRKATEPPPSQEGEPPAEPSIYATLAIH
The experiment in a line: flow cytometry, HEK293-6E transfectants. On the procedure: as §1
B1: the MFI worked out at 107 MFI and the binding result is “no binding (tested: 1 µg/mL)”.
As for B2, the MFI is 81 MFI and the binding result is given as “no binding (tested: 1 µg/mL)”.
The like results for B3 were, in that order, 93.9 MFI and “no binding (tested: 1 µg/mL)”.

For a further assay, the target named is T4, human LILRB4 on HEK293-6E cells (human, UniProt Q8NHJ6 22-448).
T4 construct: whole, on cells; also called hLILRB4
The experiment in a line: flow cytometry, HEK293-6E transfectants. On the procedure:
as §1
For B1, the MFI came to 35.2 MFI and the binding result is “no binding (tested: 1 µg/mL)”.
On to B2, for which the MFI was 27.2 MFI and the binding result is recorded as “no binding (tested: 1 µg/mL)”.
With B3, the MFI stood at 32.4 MFI and the binding result is given as “no binding (tested: 1 µg/mL)”.

The next assay has as its target T5, human LILRB5 on HEK293-6E cells (human, UniProt O75023 24-590).
T5 construct: whole, on cells; also called hLILRB5
The experiment in a line: flow cytometry, HEK293-6E transfectants. As to the method:
as §1
For the molecule B1, the MFI is 101 MFI and the binding result is listed as “no binding (tested: 1 µg/mL)”.
The like results for B2 were, in that order, 83.6 MFI and “no binding (tested: 1 µg/mL)”.
The like results for B3 were, in that order, 90.6 MFI and “no binding (tested: 1 µg/mL)”.

Another assay concerns the target T6, human LILRA1 on HEK293-6E cells (human, UniProt O75019 17-489).
T6 construct: whole, on cells; also called hLILRA1
The experiment in a line: flow cytometry, HEK293-6E transfectants. As to the method: as §1
Take B1: the MFI worked out at 264 MFI and the binding result is reported as “no binding (tested: 1 µg/mL)”.
For the molecule B2, the MFI was 264 MFI and the binding result is “no binding (tested: 1 µg/mL)”.
The like results for B3 were, in that order, 280 MFI and “no binding (tested: 1 µg/mL)”.

The target of the next assay is T7, human LILRA2 on HEK293-6E cells (human, UniProt Q8N149 24-483).
T7 construct: whole, on cells; also called hLILRA2
T7 sequence (Q8N149 24-483): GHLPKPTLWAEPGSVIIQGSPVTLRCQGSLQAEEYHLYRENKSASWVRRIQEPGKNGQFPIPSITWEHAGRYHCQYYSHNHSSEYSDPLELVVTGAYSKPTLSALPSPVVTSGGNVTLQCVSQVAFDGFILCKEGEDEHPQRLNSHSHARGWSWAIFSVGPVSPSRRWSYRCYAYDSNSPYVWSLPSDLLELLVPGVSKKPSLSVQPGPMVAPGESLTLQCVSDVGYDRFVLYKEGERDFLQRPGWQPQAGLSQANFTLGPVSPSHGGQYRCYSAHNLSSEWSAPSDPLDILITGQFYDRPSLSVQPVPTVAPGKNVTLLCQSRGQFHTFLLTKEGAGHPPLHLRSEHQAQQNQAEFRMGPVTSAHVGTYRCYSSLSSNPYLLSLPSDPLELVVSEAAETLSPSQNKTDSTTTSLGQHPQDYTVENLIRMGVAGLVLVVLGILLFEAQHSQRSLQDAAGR
The experiment in a line: flow cytometry, HEK293-6E transfectants. As to the method: as §1
On to B1, for which the MFI amounted to 30.2 MFI and the binding result is listed as “no binding (tested: 1 µg/mL)”.
The like results for B2 were, in that order, 26.2 MFI and “no binding (tested: 1 µg/mL)”.
The like results for B3 were, in that order, 27.4 MFI and “no binding (tested: 1 µg/mL)”.

The target in a further assay is T8, human LILRA4 on HEK293-6E cells (human, UniProt P59901 24-499).
T8 construct: whole, on cells; also called hLILRA4
T8 sequence (P59901 24-499): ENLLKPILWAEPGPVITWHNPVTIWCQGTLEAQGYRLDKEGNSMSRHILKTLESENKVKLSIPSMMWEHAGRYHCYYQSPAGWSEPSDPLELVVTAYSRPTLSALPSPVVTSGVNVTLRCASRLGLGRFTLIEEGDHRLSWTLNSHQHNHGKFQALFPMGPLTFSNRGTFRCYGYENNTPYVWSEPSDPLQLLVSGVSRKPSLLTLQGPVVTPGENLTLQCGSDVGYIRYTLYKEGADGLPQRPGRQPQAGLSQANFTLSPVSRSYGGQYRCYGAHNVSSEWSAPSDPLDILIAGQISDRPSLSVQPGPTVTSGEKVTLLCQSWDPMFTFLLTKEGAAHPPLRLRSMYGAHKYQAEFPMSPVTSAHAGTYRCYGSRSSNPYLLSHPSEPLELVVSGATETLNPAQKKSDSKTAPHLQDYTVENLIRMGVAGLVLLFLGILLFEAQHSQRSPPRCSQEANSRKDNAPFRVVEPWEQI
The experiment in a line: flow cytometry, HEK293-6E transfectants. On the procedure:
as §1
In the case of B1, the MFI was found to be 143 MFI and the binding result was “no binding (tested: 1 µg/mL)”.
The like results for B2 were, in that order, 108 MFI and “no binding (tested: 1 µg/mL)”.
The like results for B3 were, in that order, 138 MFI and “no binding (tested: 1 µg/mL)”.

A further assay has as its target T9, human LILRA5 on HEK293-6E cells (human, UniProt A6NI73 42-299).
T9 construct: whole, on cells; also called hLILRA5
The experiment in a line: flow cytometry, HEK293-6E transfectants. As to the method: as §1
Take B1: the MFI is 78.5 MFI and the binding result is reported as “no binding (tested: 1 µg/mL)”.
For the molecule B2, the MFI amounted to 71 MFI and the binding result was “no binding (tested: 1 µg/mL)”.
The like results for B3 were, in that order, 78.2 MFI and “no binding (tested: 1 µg/mL)”.

In a further assay the target is T10, human LILRA6 on HEK293-6E cells (human, UniProt Q6PI73 24-481).
T10 construct: whole, on cells; also called hLILRA6
T10 sequence (Q6PI73 24-481): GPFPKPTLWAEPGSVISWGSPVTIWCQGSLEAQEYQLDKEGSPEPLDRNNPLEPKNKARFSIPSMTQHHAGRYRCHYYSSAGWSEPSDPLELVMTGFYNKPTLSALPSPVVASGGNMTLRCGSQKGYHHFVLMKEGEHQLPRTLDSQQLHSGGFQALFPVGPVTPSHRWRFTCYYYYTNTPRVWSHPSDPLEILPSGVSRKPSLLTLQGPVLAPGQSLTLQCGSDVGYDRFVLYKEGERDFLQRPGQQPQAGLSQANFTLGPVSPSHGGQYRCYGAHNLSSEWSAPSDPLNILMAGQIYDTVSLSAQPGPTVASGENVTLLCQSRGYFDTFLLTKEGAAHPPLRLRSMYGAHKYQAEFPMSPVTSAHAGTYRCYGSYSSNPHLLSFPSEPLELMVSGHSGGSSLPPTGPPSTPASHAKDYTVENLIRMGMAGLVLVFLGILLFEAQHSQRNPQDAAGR
The experiment in a line: flow cytometry, HEK293-6E transfectants. On the procedure:
as §1
B1: the MFI is 150 MFI and the binding result is on record as “no binding (tested: 1 µg/mL)”.
The like results for B2 were, in that order, 135 MFI and “no binding (tested: 1 µg/mL)”.
As for B3, the MFI stood at 148 MFI and the binding result was “no binding (tested: 1 µg/mL)”.

Another assay has as its target T11, recombinant human LILRB1-His (human, UniProt Q8NHL6 24-458).
T11 construct: Bought protein; also called LILRB1 protein
The experiment in a line: MSD ELISA, coated antigen, purified IgG1. On the procedure: (§2) Recombinant human and cynomolgus LILRB1 proteins (R&D Systems, No. 8989-T2-050; ACROBiosystems, No. CDJ-C52H3) and recombinant human and cynomolgus LILRB2 proteins (ACROBiosystems, No. LI2-H5220; No. L12-C52H3) were diluted in PBS to 4 μg/mL and added to a multi-array 384-well high-binding plates (MSD, No. L21XA4) at 10 μL/well and incubated at 4° C. overnight. The plates were washed several times with Wash Buffer (0.05% Tween® 20 in PBS), using a microplate washer and then blocked with 70 μL/well of 5% BSA in PBS for 1 hour (h) at room temperature (RT) with shaking at 700 rpm. After blocking, 20 μL/well of anti-LILRB2/LILRB1 antibodies or isotype control were added to the plates, and the plates were sealed and incubated for 2 h at RT with shaking at 700 rpm. After primary antibody binding, plates were washed five times with 70 μL/well of Wash Buffer (0.05% Tween® 20 in PBS) using a microplate washer. Secondary detection antibody (SULFO-TAG™-labeled goat anti-human IgG antibody (MSD, No. R32AJ-1)) was diluted to 4 μg/mL in assay diluent (1% BSA in PBS) and 10 μL/well was added to plates and incubated at RT protected from light for 1 h, with shaking at 700 rpm. Following incubation, plates were washed five times with Wash Buffer, using a microplate washer. After removal of the final wash, 35 μL/well of MSD Gold Read Buffer B (MSD, No. R60AM-4) was added to all wells using a Multidrop combo washer/dispenser, and plates were read using MESO Sector 600MM instrument (MSD) within 5 minutes (min) after addition of Read Buffer. Signals as counts per minute (cpm) were recorded. EC₅₀ values were calculated using GraphPad Prism based on log concentration of the primary antibodies versus cpm values.
For B1, the EC50 stood at 0.0105 µg/mL.
For B2, the EC50 was determined as 0.0134 µg/mL.
For B3, the EC50 worked out at 0.0095 µg/mL.

A further assay concerns the target T12, recombinant human LILRB2-His (human, UniProt Q8N423 22-461, limits assumed).
T12 construct: Bought protein; also called LILRB2 protein
The experiment in a line: MSD ELISA, coated antigen, purified IgG1. As to the method: as §2
(In general: ELISA stands for enzyme-linked immunosorbent assay.)
As for B1, the EC50 turned out to be 0.038 µg/mL.
Still for that read-out and setting: in the case of B2 it was 0.0461 µg/mL.
The same measure, in the same setting: in the case of B3 it was 0.0318 µg/mL.

The next assay addresses T13, recombinant cynomolgus LILRB1 (cynomolgus).
T13 construct: Bought protein
The experiment in a line: MSD ELISA, coated antigen, purified IgG1. As to the method: as §2
Take B1: the EC50 turned out to be 0.306 µg/mL.
For B2, the EC50 was 0.284 µg/mL.
On the same count and under the same terms, in the case of B3 it was 0.377 µg/mL.

A further assay concerns the target T1, human LILRB1 on cells. The experiment in a line: flow cytometry, 721.221 cells, AF647-labelled antibody. On the procedure:
(§3) While LILRB2 expression is mostly restricted to myeloid cells, LILRB1 has a broader expression on immune cell subsets, including B cells, T cells and NK cells.
(§4) Frozen cells were removed from storage in vapor phase liquid nitrogen and thawed by gentle swirling in a water bath at 37° C., then resuspended in DMEM media with 10% FBS. Cells were placed in a 15 mL conical tube and centrifuged at 300×g for 5 min, then supernatant was removed. Cells were resuspended in DMEM+10% FBS at a cell density of 2×10⁵ cells/mL in a T75 flask for culturing, and incubated at 37° C., 5% CO₂ for 3 days before passaging. Cells were passaged when the cell density reached 1×10⁶ cell/mL. On the day of the assay, cells were centrifuged, then supernatant was removed. Cells were resuspended in Blocking Buffer B (FACS Buffer containing 10% FBS and 0.5 mg/mL human IgG1 (Athens Research, No. 16-16-090707-1M)+0.05% NaN₃, 5% (w/v)) in a 15 mL conical tube, then incubated at 4° C. for 30 min. […] Cells were incubated with antibodies at 4° C. for 1 h. Cells were washed twice in FACS Buffer (PBS containing 2 mM EDTA+1% FBS+0.05% NaN₃) and then stained with for 10 min with Zombie Violet™ fixable viability dye (BioLegend, No. 423114) at RT, washed with FACS Buffer and resuspend in 75 μL of FACS Buffer for acquisition on a BD FACSymphony™ or BD FACSCanto™ II flow cytometer (BD Biosciences), as described in Example 6.
Molecule B1 had an EC50 of 0.0448 µg/mL.
The same measure, in the same setting: the value for B2 was 0.0616 µg/mL; that for B3 was 0.0782 µg/mL.

The next assay addresses T2, human LILRB2 on cells. The experiment in a line: flow cytometry, LILRB2-HEK293T cells, AF647-labelled antibody. As to the method:
as §3, §4
With B1, the EC50 came to 0.0008 µg/mL.
B2 displayed an EC50 of 0.00086 µg/mL.
On the same count and under the same terms, in the case of B3 it was 0.0009 µg/mL.

One may read the EC50 as the concentration at which the effect is half-maximal.
